Assay results from patent US20210017284A1 (ABEOME, published 2021).

Key:
human PD-L1 = target: T1, human PD-L1 (human, UniProt Q9NZQ7 19-238, limits assumed); test: SPR (format not described)
T1 construct: also called CD274; B7-H1

cynomolgus monkey PD-L1 = target: T2, cynomolgus monkey PD-L1 (cynomolgus monkey, UniProt G7PSE7 19-238); test: SPR (format not described)
T2 construct: PD-L1 is implied
T2 sequence (G7PSE7 entry or part of it): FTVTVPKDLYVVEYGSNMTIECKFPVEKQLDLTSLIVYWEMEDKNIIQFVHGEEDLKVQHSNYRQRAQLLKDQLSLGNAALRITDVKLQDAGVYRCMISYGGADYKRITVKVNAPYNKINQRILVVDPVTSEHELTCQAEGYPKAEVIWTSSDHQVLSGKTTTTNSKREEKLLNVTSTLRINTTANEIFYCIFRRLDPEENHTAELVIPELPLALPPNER

T1 sequence (Q9NZQ7 19-238 limits assumed): as the sequence (G7PSE7 entry or part of it) above, with T33A, S34A, N62S, Q68R, R82Q, L173F, A185T, I192T, L215H counted along it

B1: hABM101.11 (IgG4) (antibody, V domains shown)
VH: QVQLVQSGPEVKKPGASVKVSCKASGYTFTENSMHWVRQSHGKSLEWMGGINPNNGGTSYNQKFKGKVTMTTDKSTSTAYMELRSLTSDDTAVYYCARPYYYGYREDYFDYWGQGTTLTVSS
VL: EIVMTQSPGTLSLSPGERATLSCRASSSVSYMYWYQQKPGQAPRPLIYLTSNLASGIPDRFSGSGSGTDYTLTISRLEPEDFAVYYCQQWSSYPPTFGQGTKVEIKR
Human PD-L1
  Kd: 0.349 nM

B2: hABM101.11 (IgG1) (antibody, V domains shown)
VH: B1 VH
VL: B1 VL
Cynomolgus monkey PD-L1
  Kd: 0.579 nM
Human PD-L1
  Kd: 0.374 nM
